One data set addresses T1, DrBphP (Deinococcus radiodurans, UniProt Q9RZA4).
T1 construct: gene bphP; full length (755 residues), C-terminal His6 tag, pET21b(+), E. coli BL21(DE3), assembled with biliverdin
T1 sequence (Q9RZA4 1-755): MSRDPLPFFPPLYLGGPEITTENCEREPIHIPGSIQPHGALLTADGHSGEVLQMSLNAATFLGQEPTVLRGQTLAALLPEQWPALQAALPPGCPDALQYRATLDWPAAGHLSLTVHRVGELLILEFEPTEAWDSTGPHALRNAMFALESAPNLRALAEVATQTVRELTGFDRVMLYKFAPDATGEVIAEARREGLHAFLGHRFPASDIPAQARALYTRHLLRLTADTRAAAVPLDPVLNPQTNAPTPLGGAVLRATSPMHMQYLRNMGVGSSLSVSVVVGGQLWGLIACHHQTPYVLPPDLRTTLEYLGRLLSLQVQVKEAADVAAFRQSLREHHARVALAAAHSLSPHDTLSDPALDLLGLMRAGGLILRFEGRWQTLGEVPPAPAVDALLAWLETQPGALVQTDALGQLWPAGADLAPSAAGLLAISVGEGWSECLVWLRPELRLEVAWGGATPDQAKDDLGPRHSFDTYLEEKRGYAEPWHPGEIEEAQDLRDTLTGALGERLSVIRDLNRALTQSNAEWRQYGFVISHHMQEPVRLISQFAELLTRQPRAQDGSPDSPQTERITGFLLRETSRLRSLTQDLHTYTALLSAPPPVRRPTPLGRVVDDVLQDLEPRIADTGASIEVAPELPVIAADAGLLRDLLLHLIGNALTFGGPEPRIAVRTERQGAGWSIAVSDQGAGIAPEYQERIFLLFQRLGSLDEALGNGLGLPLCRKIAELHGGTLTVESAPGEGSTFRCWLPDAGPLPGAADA
As to the kind of experiment: Phos-tag gel, dephosphorylation of phospho-DrRR with and without ATP. It is filed as biochemical. As to conditions: 1 mM ATP, phospho-DrRR as substrate, 5 mM MgCl2, pH 7.8, 25 °C, dark or red light.

A further data set has as its target T2, AtRR1 (Agrobacterium fabrum, UniProt Q7CY46).
T2 construct: gene Atu1989; REC-domain-only response regulator, His6 tag, pET21b(+) with N-terminal T7 tag, E. coli BL21(DE3)
T2 sequence (Q7CY46 1-151): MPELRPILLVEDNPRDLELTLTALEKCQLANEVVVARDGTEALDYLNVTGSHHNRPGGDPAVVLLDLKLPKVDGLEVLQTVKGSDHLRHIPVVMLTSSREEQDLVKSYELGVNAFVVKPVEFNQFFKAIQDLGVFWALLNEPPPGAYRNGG
Briefly: chemical phosphorylation, Phos-tag gel. It is filed as biochemical. As to conditions: 50 mM acetyl phosphate, 5 mM MgCl2, pH 7.8, 37 °C, 30 min.

Data set [1] concerns the molecule itself. As to the kind of experiment: SEC; EGFP-labeled response regulator alone; Superdex-200 Increase 3.2/300; 25 mM Tris/HCl pH 7.8, 5 mM MgCl2, 4 mM 2-mercaptoethanol, 5% ethylene glycol; 24 µl at 5 mg/ml; plotted at 280 nm.
In data set [2] the target is DrBphP E536A variant (Deinococcus radiodurans strain R1, UniProt Q9RZA4 1-755, E536A, biliverdin chromophore (molar excess of biliverdin hydrochloride added to the lysate)). As to the kind of experiment: ITC. (In general: Isothermal titration calorimetry measures the heat released or taken up as one component is titrated into another.)
Data set [3] addresses T3, bacteriophytochrome from Deinococcus radiodurans (DrBphP), wild type (Deinococcus radiodurans strain R1, UniProt Q9RZA4 1-755, biliverdin chromophore (molar excess of biliverdin hydrochloride added to the lysate; thioether linkage to the conserved cysteine within the PAS domain)).
T3 construct: Pr (dark or far-red) and Pfr (red light) states are told apart by the assay; source: E. coli BL21 (DE3), purified (NiNTA, SEC)
T3 sequence: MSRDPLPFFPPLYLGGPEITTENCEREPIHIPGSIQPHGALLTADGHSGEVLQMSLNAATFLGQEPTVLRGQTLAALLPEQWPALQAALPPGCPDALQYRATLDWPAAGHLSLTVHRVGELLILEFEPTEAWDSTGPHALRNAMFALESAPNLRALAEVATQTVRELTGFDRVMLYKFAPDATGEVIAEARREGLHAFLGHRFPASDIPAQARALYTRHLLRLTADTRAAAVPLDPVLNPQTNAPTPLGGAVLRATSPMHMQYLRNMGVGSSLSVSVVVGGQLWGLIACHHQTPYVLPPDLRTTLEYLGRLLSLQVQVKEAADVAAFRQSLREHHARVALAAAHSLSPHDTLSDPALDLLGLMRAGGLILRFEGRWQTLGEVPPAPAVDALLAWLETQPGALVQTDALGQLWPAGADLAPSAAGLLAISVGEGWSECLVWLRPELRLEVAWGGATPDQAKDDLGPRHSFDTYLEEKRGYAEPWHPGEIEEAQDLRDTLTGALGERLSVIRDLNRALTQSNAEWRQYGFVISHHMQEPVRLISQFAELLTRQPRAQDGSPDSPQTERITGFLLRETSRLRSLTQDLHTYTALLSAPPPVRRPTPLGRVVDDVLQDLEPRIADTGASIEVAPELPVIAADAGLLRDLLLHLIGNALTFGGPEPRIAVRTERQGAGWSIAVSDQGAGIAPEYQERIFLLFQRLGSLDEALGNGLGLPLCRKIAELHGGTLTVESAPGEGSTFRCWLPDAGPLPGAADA
As to the kind of experiment: SPR; same sensorgrams as the dark steady-state SPR; 1:1 Langmuir kinetic fit of ka/kd; DrBphP 8-67 µM. As to conditions: both partners purified. (In general: In SPR one partner is held on a chip, and binding of the other changes the refractive index at the surface.)

Data set [4] has as its target T4, DrBphP E536A variant (Deinococcus radiodurans strain R1, UniProt Q9RZA4 1-755, E536A, biliverdin chromophore (molar excess of biliverdin hydrochloride added to the lysate)).
T4 construct: source: E. coli BL21 (DE3), purified (NiNTA, SEC)
T4 sequence: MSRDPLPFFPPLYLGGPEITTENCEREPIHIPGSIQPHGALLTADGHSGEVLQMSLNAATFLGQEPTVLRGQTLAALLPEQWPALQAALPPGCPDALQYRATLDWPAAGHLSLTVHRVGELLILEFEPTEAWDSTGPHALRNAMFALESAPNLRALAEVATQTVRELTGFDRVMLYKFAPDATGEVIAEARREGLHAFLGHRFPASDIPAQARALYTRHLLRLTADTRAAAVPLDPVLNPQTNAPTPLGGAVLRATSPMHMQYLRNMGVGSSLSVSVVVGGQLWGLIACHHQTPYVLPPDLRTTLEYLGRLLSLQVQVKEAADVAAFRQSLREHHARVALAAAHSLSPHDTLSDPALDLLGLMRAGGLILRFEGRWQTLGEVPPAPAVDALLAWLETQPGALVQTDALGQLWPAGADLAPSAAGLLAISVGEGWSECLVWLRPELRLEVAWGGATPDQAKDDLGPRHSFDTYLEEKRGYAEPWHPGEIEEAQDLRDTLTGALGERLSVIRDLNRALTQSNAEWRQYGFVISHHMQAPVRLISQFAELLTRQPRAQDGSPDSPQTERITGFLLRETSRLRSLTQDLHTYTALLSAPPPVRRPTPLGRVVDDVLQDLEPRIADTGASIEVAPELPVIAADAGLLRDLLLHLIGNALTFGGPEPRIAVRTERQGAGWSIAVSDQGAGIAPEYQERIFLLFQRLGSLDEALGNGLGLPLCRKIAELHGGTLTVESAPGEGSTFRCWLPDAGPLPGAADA
Briefly: ITC; MicroCal PEAQ-ITC; BphP (30-50 µM) in the cell in the Pr state (785 nm), RR (750-800 µM) in the syringe; 25 °C, dark; Tris/HCl pH 7.8, 5 mM MgCl2, 4 mM 2-mercaptoethanol, 5% ethylene glycol; single-site fit; also run with AMP-PNP or Ca2+ added. As to conditions: both partners purified.

In data set [5] the target is T3, bacteriophytochrome from Deinococcus …. Described as above. As to conditions: both partners purified.
For data set [6] the target is unchanged. Briefly: SPR; Biacore X; response regulator coupled (EDC/NHS) on a carboxymethyldextran chip, phytochrome flowed after red light (655 nm, Pfr); 20 mM HEPES, 300 mM NaCl, 5 mM MgCl2, 0.10% Tween20, pH 7.5; room temperature; steady-state fit. As to conditions: both partners purified.
Data set [7] has the same target. Briefly: SPR; Biacore X; response regulator coupled (EDC/NHS) on a carboxymethyldextran chip, phytochrome flowed; dark (Pr, far-red 785 nm pre-illumination); 20 mM HEPES, 300 mM NaCl, 5 mM MgCl2, 0.10% Tween20, pH 7.5; room temperature; steady-state (Req) fit, 1:1 model. As to conditions: both partners purified.
Data set [8] concerns the target T5, response regulator from Deinococcus radiodurans (DrRR) (Deinococcus radiodurans strain R1, UniProt Q9RZA5 1-149).
T5 chain: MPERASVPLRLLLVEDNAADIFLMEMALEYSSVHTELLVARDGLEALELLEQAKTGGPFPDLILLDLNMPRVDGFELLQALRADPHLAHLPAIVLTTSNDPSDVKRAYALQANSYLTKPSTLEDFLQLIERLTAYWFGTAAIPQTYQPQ
As to the kind of experiment: ITC; dark (D), 30 mM Tris/HCl, pH 8.0.

Data set [9] concerns the target T5, response regulator from Deinococcus …. As to the kind of experiment: ITC; Tris pH 8.0.
Data set [10] has the same target. Briefly: ITC; Ca2+ buffer.
Data set [11] shares this target. Briefly: SPR; red light (R), kinetic.
For data set [12] the target is unchanged. Briefly: ITC; 1 mM AMP-PNP.
Data set [13] shares this target. Briefly: SPR; dark (D), kinetic.
The target is the same in data set [14]. As to the kind of experiment: SPR; dark (D), kinetic.
Data set [15] has the same target. As to the kind of experiment: SPR; red light (R), kinetic.

As usually defined, the stoichiometry N is a count of units in the complex or per binding partner. In general, Kd refers to a measure of binding affinity in units of concentration. A high value points to weaker binding. As usually defined, the koff is a measure of how fast the partners let go of each other. Low values mean a long-lived complex, high ones a short-lived complex.

On to `Nc1ncnc2c1ncn2[C@@H]1O[C@H](COP(=O)(O)OP(=O)(O)OP(=O)(O)O)[C@@H](O)[C@H]1O` [ATP], for which, at DrBphP, the “Phos-tag gel, dephosphorylation of phospho-DrRR with and without ATP” value is “the phosphatase activity in DrBphP depended on ATP addition”.

On to `CC(=O)OP(=O)(O)O` [acetyl phosphate], for which the “chemical phosphorylation, Phos-tag gel” value on AtRR1 is on record as “whereas AtRR1 responded to the treatment weakly”.

B1: EGFP-labeled AtRR1 (natural protein)
chain: MPELRPILLVEDNPRDLELTLTALEKCQLANEVVVARDGTEALDYLNVTGSHHNRPGGDPAVVLLDLKLPKVDGLEVLQTVKGSDHLRHIPVVMLTSSREEQDLVKSYELGVNAFVVKPVEFNQFFKAIQDLGVFWALLNE
notes: also called EGFP-AtRR1; source: E. coli BL21 (DE3), purified (NiNTA, SEC)
For the molecule B1, the “stoichiometry N” value in data set [1] came out at 2.

B2: response regulator from Deinococcus radiodurans (DrRR) (natural protein)
chain: MPERASVPLRLLLVEDNAADIFLMEMALEYSSVHTELLVARDGLEALELLEQAKTGGPFPDLILLDLNMPRVDGFELLQALRADPHLAHLPAIVLTTSNDPSDVKRAYALQANSYLTKPSTLEDFLQLIERLTAYWFGTAAIPQTYQPQ
notes: consists only of a receiver (REC) domain; Forms dimers in the crystal (four monomers, two dimers in the asymmetric unit); also called Q9RZA5_DEIRA; source: E. coli BL21 (DE3), purified (NiNTA, SEC)
B2: the Kd in the data set with DrBphP E536A variant [2] was 13 µM; in data set [3], roughly 10 µM; in data set [5], 8.1 µM; in data set [6], 60 ± 7 µM; in data set [7] it was 43 ± 8 µM. For the same molecule, the binding result with DrBphP E536A variant [4] is given as “binds”.

B3: bacteriophytochrome from Deinococcus radiodurans (DrBphP), wild type (enzyme)
chain: MSRDPLPFFPPLYLGGPEITTENCEREPIHIPGSIQPHGALLTADGHSGEVLQMSLNAATFLGQEPTVLRGQTLAALLPEQWPALQAALPPGCPDALQYRATLDWPAAGHLSLTVHRVGELLILEFEPTEAWDSTGPHALRNAMFALESAPNLRALAEVATQTVRELTGFDRVMLYKFAPDATGEVIAEARREGLHAFLGHRFPASDIPAQARALYTRHLLRLTADTRAAAVPLDPVLNPQTNAPTPLGGAVLRATSPMHMQYLRNMGVGSSLSVSVVVGGQLWGLIACHHQTPYVLPPDLRTTLEYLGRLLSLQVQVKEAADVAAFRQSLREHHARVALAAAHSLSPHDTLSDPALDLLGLMRAGGLILRFEGRWQTLGEVPPAPAVDALLAWLETQPGALVQTDALGQLWPAGADLAPSAAGLLAISVGEGWSECLVWLRPELRLEVAWGGATPDQAKDDLGPRHSFDTYLEEKRGYAEPWHPGEIEEAQDLRDTLTGALGERLSVIRDLNRALTQSNAEWRQYGFVISHHMQEPVRLISQFAELLTRQPRAQDGSPDSPQTERITGFLLRETSRLRSLTQDLHTYTALLSAPPPVRRPTPLGRVVDDVLQDLEPRIADTGASIEVAPELPVIAADAGLLRDLLLHLIGNALTFGGPEPRIAVRTERQGAGWSIAVSDQGAGIAPEYQERIFLLFQRLGSLDEALGNGLGLPLCRKIAELHGGTLTVESAPGEGSTFRCWLPDAGPLPGAADA
modifications: biliverdin chromophore (molar excess of biliverdin hydrochloride added to the lysate; thioether linkage to the conserved cysteine within the PAS domain)
For the molecule B3, the Kd in [8] is 35 µM; in data set [9], 35 µM; in data set [10] it was 2.8 µM; in data set [11] it was 15.5 µM; in [12], roughly 11 µM; in data set [14] it was 6.2 µM. For the same molecule, the results for the koff in data set [13] and in data set [15] were 0.0046 s⁻¹ and 0.0065 s⁻¹, respectively.

Source of the values: article PMC8292422 (Nature Communications, 2021).
